# Columns and labels:
# Assay in all cases: protection of ribosome-bound eEF2 from [14C]ADP-ribosylation by diphtheria toxin
# [1] = target: Salt washed yeast 80S ribosomes with ribosomal protein L3 K241A/R244A (yeast (S. cerevisiae)) (UniProt P14126)
# [2] = target: Salt washed yeast 80S ribosomes with ribosomal protein L3 K236A/K237A (yeast (S. cerevisiae)) (UniProt P14126)
# [3] = target: Salt washed yeast 80S ribosomes with ribosomal protein L3 K236A (yeast (S. cerevisiae)) (UniProt P14126)
# [4] = target: Salt washed yeast 80S ribosomes with ribosomal protein L3 K236A/R247A (yeast (S. cerevisiae)) (UniProt P14126)
# [5] = target: Salt washed yeast 80S ribosomes with ribosomal protein L3 R247A (yeast (S. cerevisiae)) (UniProt P14126)
# [6] = target: Salt washed yeast 80S ribosomes with ribosomal protein L3 R232A (yeast (S. cerevisiae)) (UniProt P14126)
# [7] = target: Salt washed yeast 80S ribosomes with wild-type ribosomal protein L3 (yeast (S. cerevisiae)) (UniProt P14126)
# [8] = target: Salt washed yeast 80S ribosomes with ribosomal protein L3 K237A (yeast (S. cerevisiae)) (UniProt P14126)
substance,measurement,setting,value
"Eukaryotic elongation factor 2 (eEF2), 6xHis-tagged (from UniProt P32324 1-842) (natural protein)",Kd,[1],229 nM
same,Kd,[2],84 nM
same,Kd,[3],312 nM
same,Kd,[4],110 nM
same,Kd,[5],46.6 nM
same,Kd,[6],341 nM
same,Kd,[7],383 nM
same,Kd,[8],342 nM

# Reference: publication PMC2995063
